System: Escherichia coli TOP10
Assay: shrunken log2 fold change of peptide-encoding DNA abundance (4.5 h post-induction vs induction); higher = less antimicrobial activity (less host growth inhibition)
Conditions: time post-induction: 4.5 h; library: site-saturation at positions 5, 18, 19, 20
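Further: peptides expressed intracellularly from a pBAD plasmid library in pooled LB shake-flask culture, induced with 0.3% L-arabinose, DNA abundance read by NGS, three biological replicates, DESeq2 with apeglm shrinkage.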

Row | Sequence | shrunken log2 fold change
1 | RRIRHRPPRLPRPRPRPSRYPRP | -1
2 | RRIRCRPPRLPRPRPRPYLAPRP | -0.44
3 | RRIRWRPPRLPRPRPRPDSQPRP | -0.0844
4 | RRIRLRPPRLPRPRPRPNEGPRP | 0.00337
5 | RRIRWRPPRLPRPRPRPHECPRP | -0.0602
6 | RRIRARPPRLPRPRPRPTDEPRP | 0.594
7 | RRIRHRPPRLPRPRPRPFHTPRP | -0.0888
8 | RRIRFRPPRLPRPRPRPIEQPRP | 0.0187
9 | RRIRWRPPRLPRPRPRPPLYPRP | 0.188
10 | RRIRKRPPRLPRPRPRPRKQPRP | 0.224
11 | RRIRSRPPRLPRPRPRPWLCPRP | -0.0753
12 | RRIRDRPPRLPRPRPRPDDLPRP | 0.00447
13 | RRIRNRPPRLPRPRPRPNWFPRP | -0.145
14 | RRIRNRPPRLPRPRPRPGYYPRP | -0.851
15 | RRIRWRPPRLPRPRPRPNLDPRP | 0.278
16 | RRIRGRPPRLPRPRPRPFFEPRP | 0.428
17 | RRIRLRPPRLPRPRPRPVITPRP | -0.372
18 | RRIRFRPPRLPRPRPRPTVYPRP | -0.307
19 | RRIRQRPPRLPRPRPRPRVMPRP | -0.139
20 | RRIRGRPPRLPRPRPRPSLEPRP | 0.827
21 | RRIRNRPPRLPRPRPRPKYPPRP | -0.137
22 | RRIRWRPPRLPRPRPRPTDQPRP | 0.203
23 | RRIRNRPPRLPRPRPRPEPTPRP | 0.587
24 | RRIRSRPPRLPRPRPRPSLHPRP | -0.385
25 | RRIRLRPPRLPRPRPRPSSSPRP | 0.172

Row | Sequence | shrunken log2 fold change
26 | RRIRCRPPRLPRPRPRPIMKPRP | -0.649
27 | RRIRWRPPRLPRPRPRPMYTPRP | 0.0906
28 | RRIRPRPPRLPRPRPRPNTEPRP | -0.124
29 | RRIRARPPRLPRPRPRPSHHPRP | -0.309
30 | RRIRWRPPRLPRPRPRPFRNPRP | -0.209
31 | RRIRFRPPRLPRPRPRPLCEPRP | -0.166
32 | RRIRARPPRLPRPRPRPKTQPRP | 0.0119
33 | RRIRTRPPRLPRPRPRPHCMPRP | -0.153
34 | RRIRNRPPRLPRPRPRPWAMPRP | -0.175
35 | RRIRKRPPRLPRPRPRPPYKPRP | -0.142
36 | RRIRIRPPRLPRPRPRPTQWPRP | -0.136
37 | RRIRHRPPRLPRPRPRPVIIPRP | -0.248
38 | RRIRKRPPRLPRPRPRPAVSPRP | 0.0687
39 | RRIRMRPPRLPRPRPRPSEPPRP | 0.33
40 | RRIRHRPPRLPRPRPRPHIVPRP | -0.104
41 | RRIRGRPPRLPRPRPRPHQKPRP | 0.0462
42 | RRIRHRPPRLPRPRPRPNMTPRP | 0.0729
43 | RRIRRRPPRLPRPRPRPVHQPRP | 0.208
44 | RRIRVRPPRLPRPRPRPHDMPRP | -0.0267
45 | RRIRARPPRLPRPRPRPKGEPRP | 0.556
46 | RRIRMRPPRLPRPRPRPKTGPRP | 0.895
47 | RRIRGRPPRLPRPRPRPCVLPRP | 0.158
48 | RRIRQRPPRLPRPRPRPFYTPRP | -0.589
49 | RRIRLRPPRLPRPRPRPLWHPRP | 0.0621
50 | RRIRHRPPRLPRPRPRPTNSPRP | -0.258

Row | Sequence | shrunken log2 fold change
51 | RRIRWRPPRLPRPRPRPHPKPRP | 0.408
52 | RRIRPRPPRLPRPRPRPGDLPRP | 0.076
53 | RRIRWRPPRLPRPRPRPTEFPRP | -0.0793
54 | RRIRHRPPRLPRPRPRPEDDPRP | 0.141
55 | RRIRERPPRLPRPRPRPSYSPRP | -0.147
56 | RRIRDRPPRLPRPRPRPNDFPRP | 0.239
57 | RRIRERPPRLPRPRPRPWPDPRP | -0.0169
58 | RRIRVRPPRLPRPRPRPFKFPRP | -0.0599
59 | RRIRMRPPRLPRPRPRPKAGPRP | 1.3
60 | RRIRCRPPRLPRPRPRPLNQPRP | -0.317
61 | RRIRYRPPRLPRPRPRPLPQPRP | -0.0827
62 | RRIRCRPPRLPRPRPRPTKKPRP | -0.000922
63 | RRIRNRPPRLPRPRPRPERNPRP | -0.0623
64 | RRIRIRPPRLPRPRPRPHMDPRP | -0.103
65 | RRIRMRPPRLPRPRPRPSIEPRP | 0.0914
66 | RRIRKRPPRLPRPRPRPAIKPRP | 0.191
67 | RRIRIRPPRLPRPRPRPNCIPRP | -0.408
68 | RRIRTRPPRLPRPRPRPPKYPRP | -0.103
69 | RRIRARPPRLPRPRPRPCPPPRP | 0.156
70 | RRIRFRPPRLPRPRPRPTLAPRP | 0.361
71 | RRIRYRPPRLPRPRPRPMQIPRP | -6.27e-05
72 | RRIRVRPPRLPRPRPRPNDYPRP | -0.00419
73 | RRIRQRPPRLPRPRPRPPPHPRP | 0.737
74 | RRIRPRPPRLPRPRPRPYVEPRP | -0.415
75 | RRIRNRPPRLPRPRPRPDPQPRP | 0.0854

Row | Sequence | shrunken log2 fold change
76 | RRIRTRPPRLPRPRPRPECGPRP | 0.51
77 | RRIRMRPPRLPRPRPRPESGPRP | 0.908
78 | RRIRDRPPRLPRPRPRPRVDPRP | 0.325
79 | RRIRTRPPRLPRPRPRPHGWPRP | -0.0327
80 | RRIRIRPPRLPRPRPRPFWHPRP | -0.275
81 | RRIRRRPPRLPRPRPRPEELPRP | 0.338
82 | RRIRVRPPRLPRPRPRPRSLPRP | -0.116
83 | RRIRIRPPRLPRPRPRPDRRPRP | -0.274
84 | RRIRDRPPRLPRPRPRPWVVPRP | 0.0765
85 | RRIRLRPPRLPRPRPRPHVVPRP | 0.00383
86 | RRIRPRPPRLPRPRPRPMYGPRP | -0.182
87 | RRIRVRPPRLPRPRPRPIRHPRP | -0.112
88 | RRIRARPPRLPRPRPRPHKQPRP | -0.0718
89 | RRIRMRPPRLPRPRPRPEFCPRP | 1.18
90 | RRIRYRPPRLPRPRPRPAHMPRP | -0.015
91 | RRIRSRPPRLPRPRPRPTTLPRP | -0.0324
92 | RRIRFRPPRLPRPRPRPLIYPRP | -0.898
93 | RRIRGRPPRLPRPRPRPRAWPRP | 1.31
94 | RRIRCRPPRLPRPRPRPVTWPRP | -0.417
95 | RRIRGRPPRLPRPRPRPEGTPRP | 1.55
96 | RRIRQRPPRLPRPRPRPCWTPRP | -0.0267
97 | RRIRRRPPRLPRPRPRPQMDPRP | -0.0632
98 | RRIRFRPPRLPRPRPRPVQNPRP | 0.0293
99 | RRIRHRPPRLPRPRPRPHRDPRP | -0.263
100 | RRIRLRPPRLPRPRPRPNTKPRP | -0.543

Row | Sequence | shrunken log2 fold change
101 | RRIRARPPRLPRPRPRPHQVPRP | -0.17
102 | RRIRDRPPRLPRPRPRPRHVPRP | 0.153
103 | RRIRDRPPRLPRPRPRPFTNPRP | -0.0104
104 | RRIRIRPPRLPRPRPRPCEEPRP | 0.0173
105 | RRIRQRPPRLPRPRPRPKAGPRP | 0.0875
106 | RRIRIRPPRLPRPRPRPMTDPRP | -0.91
107 | RRIRQRPPRLPRPRPRPNQIPRP | -0.371
108 | RRIRFRPPRLPRPRPRPTDEPRP | 0.00361
109 | RRIRDRPPRLPRPRPRPYAYPRP | 0.0345
110 | RRIRRRPPRLPRPRPRPWCQPRP | -0.26
111 | RRIRTRPPRLPRPRPRPHIQPRP | -0.0986
112 | RRIRIRPPRLPRPRPRPEGCPRP | -0.0356
113 | RRIRERPPRLPRPRPRPTHCPRP | -0.115
114 | RRIRMRPPRLPRPRPRPKVMPRP | 0.201
115 | RRIRERPPRLPRPRPRPIKGPRP | -0.0123
116 | RRIRYRPPRLPRPRPRPVSEPRP | -0.00125
117 | RRIRERPPRLPRPRPRPMKIPRP | 0.0286
118 | RRIRYRPPRLPRPRPRPVQRPRP | -0.0294
119 | RRIRCRPPRLPRPRPRPHWEPRP | -0.132
120 | RRIRSRPPRLPRPRPRPTISPRP | -0.655
121 | RRIRNRPPRLPRPRPRPSQSPRP | -0.169
122 | RRIRVRPPRLPRPRPRPWISPRP | -0.0628
123 | RRIRPRPPRLPRPRPRPAYYPRP | -0.0697
124 | RRIRVRPPRLPRPRPRPTNQPRP | 0.0229
125 | RRIRSRPPRLPRPRPRPCFCPRP | -0.489

Row | Sequence | shrunken log2 fold change
126 | RRIRRRPPRLPRPRPRPEMKPRP | 0.215
127 | RRIRARPPRLPRPRPRPNEAPRP | 0.269
128 | RRIRERPPRLPRPRPRPFHIPRP | -0.133
129 | RRIRCRPPRLPRPRPRPGSQPRP | 0.0392
130 | RRIRYRPPRLPRPRPRPFIFPRP | -1.01
131 | RRIRGRPPRLPRPRPRPKNRPRP | 0.368
132 | RRIRRRPPRLPRPRPRPMVDPRP | 0.0808
133 | RRIRHRPPRLPRPRPRPDAPPRP | 2.03
134 | RRIRNRPPRLPRPRPRPVLCPRP | 0.0343
135 | RRIRARPPRLPRPRPRPWRDPRP | 0.225
136 | RRIRPRPPRLPRPRPRPFQAPRP | -0.216
137 | RRIRARPPRLPRPRPRPSIWPRP | 0.352
138 | RRIRGRPPRLPRPRPRPAHVPRP | 0.586
139 | RRIRNRPPRLPRPRPRPTTNPRP | 0.365
140 | RRIRERPPRLPRPRPRPQSPPRP | -0.062
141 | RRIRVRPPRLPRPRPRPVENPRP | 0.02
142 | RRIRSRPPRLPRPRPRPMSCPRP | -0.067
143 | RRIRWRPPRLPRPRPRPNDGPRP | -0.00211
144 | RRIRHRPPRLPRPRPRPTMLPRP | -0.468
145 | RRIRRRPPRLPRPRPRPFVYPRP | -0.0209
146 | RRIRRRPPRLPRPRPRPLQTPRP | 1.59
147 | RRIRFRPPRLPRPRPRPKKSPRP | 0.158
148 | RRIRFRPPRLPRPRPRPDLEPRP | -0.0811
149 | RRIRYRPPRLPRPRPRPIKLPRP | -0.126
150 | RRIRWRPPRLPRPRPRPCITPRP | -0.0175

Source: the supplement of paper PMC9112550, “Optimization of the antimicrobial peptide Bac7 by deep mutational scanning” (BMC Biology, 2022)
